Measurements: US20230051715A1 (MABWELL THERAPEUTICS, published 2023)

T1: human C1s mutant M9 (K336G, D343Y & E351A) (human, UniProt P09871 16-688)
T1 construct: The entry is the mutant itself
T1 sequence: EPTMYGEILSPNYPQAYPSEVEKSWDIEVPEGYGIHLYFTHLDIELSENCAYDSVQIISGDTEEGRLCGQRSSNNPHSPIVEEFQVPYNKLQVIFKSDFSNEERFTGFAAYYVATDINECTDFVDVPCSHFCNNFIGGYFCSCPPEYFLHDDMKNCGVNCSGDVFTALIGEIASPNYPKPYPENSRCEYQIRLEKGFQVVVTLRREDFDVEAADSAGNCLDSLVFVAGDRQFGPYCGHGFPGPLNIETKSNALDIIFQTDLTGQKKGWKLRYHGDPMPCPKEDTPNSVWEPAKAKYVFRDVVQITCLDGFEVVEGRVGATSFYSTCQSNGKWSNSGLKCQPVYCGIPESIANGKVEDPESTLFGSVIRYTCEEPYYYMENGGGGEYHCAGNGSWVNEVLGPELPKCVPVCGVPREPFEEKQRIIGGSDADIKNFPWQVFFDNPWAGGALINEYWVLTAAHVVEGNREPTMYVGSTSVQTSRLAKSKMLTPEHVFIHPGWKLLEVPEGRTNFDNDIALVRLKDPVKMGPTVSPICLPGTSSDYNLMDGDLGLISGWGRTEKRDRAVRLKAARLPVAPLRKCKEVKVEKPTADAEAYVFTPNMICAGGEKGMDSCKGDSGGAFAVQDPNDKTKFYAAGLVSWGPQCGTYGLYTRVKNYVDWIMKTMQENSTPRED

T2: active human C1s (CompTech A104 C1s Enzyme) (human, UniProt P09871 16-688)
T2 construct: also called human active C1s; active C1s protein
T2 sequence (looked up): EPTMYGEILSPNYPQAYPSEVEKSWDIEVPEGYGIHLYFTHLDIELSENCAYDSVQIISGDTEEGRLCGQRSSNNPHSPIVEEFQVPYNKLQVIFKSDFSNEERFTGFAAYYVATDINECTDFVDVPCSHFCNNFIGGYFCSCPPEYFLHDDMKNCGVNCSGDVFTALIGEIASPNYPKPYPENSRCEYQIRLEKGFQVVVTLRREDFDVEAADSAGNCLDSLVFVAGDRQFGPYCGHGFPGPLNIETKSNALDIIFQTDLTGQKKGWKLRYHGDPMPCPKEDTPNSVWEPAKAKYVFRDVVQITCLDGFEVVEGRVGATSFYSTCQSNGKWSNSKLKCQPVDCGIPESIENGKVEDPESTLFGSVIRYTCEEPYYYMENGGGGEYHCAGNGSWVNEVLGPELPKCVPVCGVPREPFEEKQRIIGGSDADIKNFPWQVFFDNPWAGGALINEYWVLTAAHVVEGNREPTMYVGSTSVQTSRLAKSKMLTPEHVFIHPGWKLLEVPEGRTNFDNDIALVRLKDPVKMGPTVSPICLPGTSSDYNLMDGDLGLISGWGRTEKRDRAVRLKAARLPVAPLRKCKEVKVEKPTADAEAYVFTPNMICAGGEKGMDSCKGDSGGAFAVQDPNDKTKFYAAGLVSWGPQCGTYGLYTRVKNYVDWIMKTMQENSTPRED


How the values were obtained:
[1] = molecular target: T1, human C1s mutant M9 (K336G, D343Y & …); assay: ELISA, plate coated with human C1s mutant M9: K336G, D343Y, E351A, OD450nm
Method: ELISA was carried out by first coating 96-well plates with 200 ng/well of full-length or truncated C1s proteins overnight. The next morning, plates were blocked with SuperBlock T20 blocking buffer (Thermo Scientific 37536) for 1 h with gentle shaking. Then, various concentrations of anti-C1s antibodies diluted in SuperBlock T20 blocking buffer were added to the plates and incubated for 1 h with gentle shaking. Mouse IgG (Sigma-Aldrich 15381) and human IgG1 (BioXCell BP0297) were used as negative controls. The plates were washed before incubating with HRP conjugated secondary antibodies diluted in SuperBlock T20 blocking buffer (goat anti-mouse IgG (H+L) cross-adsorbed secondary antibody HRP (Invitrogen G-21040) or goat anti-human IgG antibody, HRP conjugate (Millipore AP309P)) for 1 h with gentle shaking. At last, the plates were washed and color developed with ELISA liquid HRP substrate (Sigma-Aldrich), followed by stopping the reaction with addition of 1M H₂SO₄ in the same volume as the ELISA liquid substrate. Bound antibody was measured by absorbance at OD₄₅₀ₙₘ.
Binding of anti-C1s antibodies to mutants M1-M20 of human C1s was measured by ELISA as described in Example 4, and results are shown in FIGS. 6B-6U. […]

[2] = molecular target: T2, active human C1s (CompTech A104 C1s …); assay: BLI (Octet RED96e), antibody on AHC biosensor; HuC1s Form: Active; R^2 0.9990
Method: Bio-Layer Interferometry technology was used for anti-C1s antibody affinity measurement and binding kinetics determinations with OCTET® RED96e system (Sartorius AG). Pre-hydrated Anti-Human IgG Fc Capture (AHC) biosensors were first equilibrated in 1×KB (Kinetic Buffer, 1×PBS pH 7.4+0.02% Tween-20+0.1% BSA) for 120 sec for the first baseline, followed by loading with […] anti-C1s antibody (2-7, FIG. 3A; 2-8, FIG. 3B; hz2-7(H1L2), FIG. 3C; hz2-8(H1L2 G80A/T82A, FIG. 3D) onto AHC biosensors for 240 sec. Then, the second baseline signal was established for 120 sec before association with various concentrations of active human C1s (CompTech A104) for 240-360 sec. At last, analyte was dissociated in 1×KB for 360 sec. Anti-C1s antibodies 2-7 and 2-8 were also analyzed against human C1s proenzyme (CompTech A103) (data not shown). Data analysis was carried out using OCTET® Data Analysis HT Software (Sartorius AG). KD, kₒₙ, koff and R² values were calculated for each antibody and target combination, as summarized in FIG. 3E showing high affinity binding with KD values in the low nanomolar to picomolar range.

binding result [1]	Kd [2] [nM]	koff [2] [s⁻¹]	kon [2] [M⁻¹ s⁻¹]	Binder
no binding (tested: 1000 ng/ml (Log 3))	–	–	–	Anti-C1s antibody hz2-8 (H1L2 G80A/T82A) (antibody, V domains shown, Humanized variant with G80A and T82A in HC CDR2 (already in the entry), human IgG1 / kappa) VH: QVQLVQSGAEVKKPGASVKVSCKASGFNIKEYYMHWVRQAPEQGLEWMGWIDPENADAIYAQKFQGRVTITADTSTNTAYMELSSLRSEDTAVYYCARSRLFFAYWGQGTLVTVSS VL: DIQMTQSPKSLSASVGDRVTITCRASQDVRTALDWYQQKPGQSPKLLIYSASYRYSGVPSRFSGSGSGTDFTLTISSLQPEDFATYYCQQQYTTPYTFGQGTKLEIKR
–	0.49	0.00012	250000	Anti-C1s antibody 2-8 (antibody, V domains shown, the HC/LC entries may hold it too; also called clone 2-8) VH: EVQLQQSGAELVRPGALVKLSCKASGFNIKEYYMHWVKQRPEQGLEWIGWIDPENGDTIYDPKFQGKASITADTSSNTAYLQLSSLTSEDTAVYYCARSRLFFAYWGQGTLVTVSA VL: DIVMTQSHKFMSTSVGDRVSFTCKASQDVRTAVDWYQQKPGQSPKLLIYSASYRYTGVPDRFTGTGSGTDFTFTISSVQAEDLAVYFCQQQYTTPYTFGGGTKLEIKT
